Experiments:
[1] = target: T1, wild type B. subtilis glutamine PRPP amidotransferase (Bacillus subtilis, UniProt P00497); assay: Inhibition of enzyme activity by nucleotides (glutamate formation assay), wild type; assay type: biochemical; settings: read-out: Km PRPP; wild type enzyme; data not shown
T1 construct: Enzymes of the B. subtilis class are synthesized with an NH2 terminal propeptide and an Fe—S center; made in house; host or cells: E. coli strain TX158 (purF) with plasmid pGZ1
T1 sequence (P00497 12-476): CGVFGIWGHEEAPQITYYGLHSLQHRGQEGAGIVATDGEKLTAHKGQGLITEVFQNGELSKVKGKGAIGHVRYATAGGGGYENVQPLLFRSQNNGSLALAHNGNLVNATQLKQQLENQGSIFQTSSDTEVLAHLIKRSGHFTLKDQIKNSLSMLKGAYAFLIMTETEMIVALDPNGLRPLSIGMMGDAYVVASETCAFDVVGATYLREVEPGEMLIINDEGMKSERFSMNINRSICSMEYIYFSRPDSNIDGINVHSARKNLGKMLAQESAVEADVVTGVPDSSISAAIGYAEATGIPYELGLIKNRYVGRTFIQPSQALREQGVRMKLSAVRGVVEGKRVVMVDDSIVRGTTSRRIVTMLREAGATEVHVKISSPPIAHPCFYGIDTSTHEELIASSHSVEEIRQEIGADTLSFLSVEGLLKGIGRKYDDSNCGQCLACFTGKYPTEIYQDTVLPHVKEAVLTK
Procedure: Enzyme activity was assayed by measuring the initial rate of formation of the product glutamate. […] Incubation was at 37° C. for 6 min. […] Reactions were quenched in a boiling water bath for 2 min, and glutamate was determined by the glutamate dehydrogenase method.
Inhibition by nucleotides was determined by the standard assay to which varied concentrations of nucleotide were added. Synergistic inhibition was determined by varying the concentration of one nucleotide in the presence of a fixed concentration of a second nucleotide. Relative activity (see FIG. 1) refers to the enzyme activity at a given concentration of the varied nucleotide relative to that in the absence of the varied nucleotide. I0.5 values were calculated from plots of relative activity versus varied nucleotide concentration.

[2] = tested on: O=P(O)(O)OC[C@H]1OC(OP(=O)(O)OP(=O)(O)O)[C@H](O)[C@@H]1O; assay: purified protein, by the assay type; settings: other: S347A enzyme; data not shown; pH 8.0; 37.0 °C
[3] = Specific activity of purified enzyme; assay type: biochemical, Bacillus subtilis; settings: typical value
Procedure: For enzyme purification, all buffers were sparged with nitrogen gas prior to use in order to minimize oxidation of the enzyme's Fe-S cluster. All steps were carried out at 4° C. Cells were resuspended in 4 mL/gram of buffer A [50 mM Tris-HCl (pH 8.0), 10 mM MgCl2, 0.1 mM EDTA, 5 mM DTT, and 2 mM AMP] containing 1 mM PMSF, and were disrupted by two passes through a French Press. The cell extract was obtained by centrifugation for 1 h at 27,000 g. Protamine sulfate (5 mg per gram of cells) was added to the extract to precipitate DNA. After centrifugation at 27,000 g for 30 min, the supernatant was applied to a 1.9×20 cm column of DEAE-Sepharose equilibrated with buffer A. The column was washed with 300 mL of buffer A and 300 mL of buffer A plus 0.1 M KCl and eluted with a linear salt gradient of 600 mL from 0.1 to 1.0 M KCl in buffer A. Brown-colored fractions containing the enzyme were precipitated by addition of ammonium sulfate to 40% saturation. After centrifugation, enzyme in the brown pellet was recovered by extraction twice with 30% saturated ammonium sulfate. […]
Enzyme activity was assayed by measuring the initial rate of formation of the product glutamate. […] Reactions were quenched in a boiling water bath for 2 min, and glutamate was determined by the glutamate dehydrogenase method. […]

O=P(O)(O)OC[C@H]1OC(OP(=O)(O)OP(=O)(O)O)[C@H](O)[C@@H]1O (stereo partly drawn) [PRPP, phosphoribosylpyrophosphate]
Km [1]: 75 to 81 µM

glutamine PRPP amidotransferase S347A mutant enzyme (Bacillus subtilis subsp. subtilis str. 168; S358A)
Km [2]: 182 µM

B1: wild type: wild type B. subtilis glutamine PRPP amidotransferase produced from plasmid pGZ1 (protein, UniProt P00497 12-476, looked up)
Amidophosphoribosyltransferase: CGVFGIWGHEEAPQITYYGLHSLQHRGQEGAGIVATDGEKLTAHKGQGLITEVFQNGELSKVKGKGAIGHVRYATAGGGGYENVQPLLFRSQNNGSLALAHNGNLVNATQLKQQLENQGSIFQTSSDTEVLAHLIKRSGHFTLKDQIKNSLSMLKGAYAFLIMTETEMIVALDPNGLRPLSIGMMGDAYVVASETCAFDVVGATYLREVEPGEMLIINDEGMKSERFSMNINRSICSMEYIYFSRPDSNIDGINVHSARKNLGKMLAQESAVEADVVTGVPDSSISAAIGYAEATGIPYELGLIKNRYVGRTFIQPSQALREQGVRMKLSAVRGVVEGKRVVMVDDSIVRGTTSRRIVTMLREAGATEVHVKISSPPIAHPCFYGIDTSTHEELIASSHSVEEIRQEIGADTLSFLSVEGLLKGIGRKYDDSNCGQCLACFTGKYPTEIYQDTVLPHVKEAVLTK
Enzyme specific activity [3]: 25 nmol/min/mg

Source: patent US6586216B2 (Purdue Research Foundation, priority 1997, dated 2003)
